Measured values reported in patent US20070089183A1, “Size and/or growth engineering by modulation of the interaction between calmodulin, and brassinosteroid biosynthetic enzymes and orthologs therof” (Washington State University, priority 2005, published 2007).

System: Ca^2+/CaM
Test: gel mobility shift assay of BR biosynthetic proteins
Type: binding, potato
Conditions: FIG. 5
Description: PCM1: potato calmodulin 1; PCM6: potato calmodulin 6. Sequences of respective CaMBD are also shown: N-DWF4 (SEQ ID NO:18); C-DWF4 (SEQ ID NO:19); CPD (SEQ ID NO:17); and DWF5 (SEQ ID NO:20).
DWF1Ca^2+ is an important second messenger and an integral part of the cellular signalling system in plants^5,29. Applicants were thus prompted to survey the CaM-binding properties of other proteins involved in brassinosteroid biosynthesis.

Ca^2+/CaM binding: Ca^2+/CaM-binding proteins
B1: CPD: Arabidopsis CPD (AT5G05690), cytochrome P450 90A1 (protein, listed as Arabidopsis thaliana)
chain: MAFTAFLLLLSSIAAGFLLLLRRTRYRRMGLPPGSLGLPLIGETFQLIGAYKTENPEPFIDERVARYGSVFMTHLFGEPTIFSADPETNRFVLQNEGKLFECSYPASICNLLGKHSLLLMKGSLHKRMHSLTMSFANSSIIKDHLMLDIDRLVRFNLDSWSSRVLLMEEAKKITFELTVKQLMSFDPGEWSESLRKEYLLVIEGFFSLPLPLFSTTYRKAIQARRKVAEALTVVVMKRREEEEEGAERKKDMLAALLAADDGFSDEEIVDFLVALLVAGYETTSTIMTLAVKFLTETPLALAQLKEEHEKIRAMKSDSYSLEWSDYKSMPFTQCVVNETLRVANIIGGVFRRAMTDVEIKGYKIPKGWKVFSSFRAVHLDPNHFKDARTFNPWRWQSNSVTTGPSNVFTPFGGGPRLCPGYELARVALSVFLHRLVTGFSWVPAEQDKLVFFPTTRTQKRYPIFVKRRDFAT
